Measured values taken from the supplement of paper PMC11246515.
± gives the standard deviation of the averaged measurements.

Test: total protein half-life in vivo (active degradation + dilution); higher = more stable protein
[1] = E. coli NCM3722 delta-clpP delta-lon delta-hslV, growth: N-lim chemostat, doubling time 6 h
[2] = wild type E. coli NCM3722, growth: C-lim chemostat, doubling time 6 h
[3] = wild type E. coli NCM3722, growth: C-lim chemostat, doubling time 12 h
[4] = E. coli NCM3722 delta-hslV, growth: N-lim chemostat, doubling time 6 h
[5] = E. coli NCM3722 delta-clpP, growth: N-lim chemostat, doubling time 6 h
[6] = E. coli NCM3722 delta-lon, growth: N-lim chemostat, doubling time 6 h
[7] = E. coli NCM3722 delta-smpB, growth: N-lim chemostat, doubling time 6 h
[8] = wild type E. coli NCM3722, growth: C-lim chemostat, doubling time 3 h
[9] = wild type E. coli NCM3722, growth: N-lim chemostat, doubling time 6 h
[10] = wild type E. coli NCM3722, growth: N-lim chemostat, doubling time 12 h
[11] = wild type E. coli NCM3722, growth: P-lim chemostat, doubling time 6 h
[12] = wild type E. coli NCM3722, growth: P-lim chemostat, doubling time 12 h

Sequence | total protein half-life in vivo [1] [h] | total protein half-life in vivo [2] [h] | total protein half-life in vivo [3] [h] | total protein half-life in vivo [4] [h] | total protein half-life in vivo [5] [h] | total protein half-life in vivo [6] [h] | total protein half-life in vivo [7] [h] | total protein half-life in vivo [8] [h] | total protein half-life in vivo [9] [h] | total protein half-life in vivo [10] [h] | total protein half-life in vivo [11] [h] | total protein half-life in vivo [12] [h]
MKYVFIEKHQAEFSIKAMCRVLRVARSGWYTWCQRRTRISTRQQFRQHCDSVVLAAFTRSKQRYGAPRLTDELRAQGYPFNVKTVAASLRRQGLRAKASRKFSPVSYRAHGLPVSENLLEQDFYASGPNQKWAGDITYLRTDEGWLYLAVVIDLWSRAVIGWSMSPRMTAQLACDALQMALWRRKRPRNVIVHTDRGGQYCSADYQAQLKRHNLRGSMSAKGCCYDNACVESFFHSLKVECIHGEHFISREIMRATVFNYIECDYNRWRRHSWCGGLSPEQFENKNLA [P0CF81] | 5.16 ± 0.69 | – | – | – | – | – | – | – | – | – | – | –
MLAFIRFLFAGLLLVISHAFAATVQDEHGTFTLEKTPQRIVVLELSFADALAAVDVIPIGIADDNDAKRILPEVRAHLKPWQSVGTRAQPSLEAIAALKPDLIIADSSRHAGVYIALQQIAPVLLLKSRNETYAENLQSAAIIGEMVGKKREMQARLEQHKERMAQWASQLPKGTRVAFGTSREQQFNLHTQETWTGSVLASLGLNVPAAMAGASMPSIGLEQLLAVNPAWLLVAHYREESIVKRWQQDPLWQMLTAAQKQQVASVDSNTWARMRGIFAAERIAADTVKIFHHQPLTVVK | – | 5.67 | 7.06 | – | – | – | – | – | – | – | – | –
MLAISSNLSKMIIFIFAIIIIVVLCVITYLYLYKDESLVSKHYINYMAIPENDGVFTWLPDFFPHVAVDISIYTNVEDDYFFLIFP | 3.41 | – | – | 5.43 | – | – | – | – | – | – | – | –
MLCVKNVSLRLPESRLLTNVNFTVDKGDIVTLMGPSGCGKSTLFSWMIGALAEQFSCTGELWLNEQRIDILPTAQRQIGILFQDALLFDQFSVGQNLLLALPATLKGNARRNAVNDALERSGLEGAFHQDPATLSGGQRARVALLRALLAQPKALLLDEPFSRLDVALRDNFRQWVFSEVRALAIPVVQVTHDLQDVPADSSVLDMAQWSENYNKLR | 6.284 ± 0.01 | 6.13 ± 0.53 | 10.8 ± 2.7 | 6.47 ± 0.07 | 5.73 ± 0.066 | 6.28 ± 0.58 | 5.27 ± 0.077 | 3.11 ± 0.35 | 6.45 ± 0.98 | 12.7 ± 0.24 | 5.99 ± 0.28 | 13.7 ± 0.89
MLDANKLQQAVDQAYTQFHSLNGGQNADYIPFLANVPGQLAAVAIVTCDGNVYSAGDSDYRFALESISKVCTLALALEDVGPQAVQDKIGADPTGLPFNSVIALELHGGKPLSPLVNAGAIATTSLINAENVEQRWQRILHIQQQLAGEQVALSDEVNQSEQTTNFHNRAIAWLLYSAGYLYCDAMEACDVYTRQCSTLLNTIELATLGATLAAGGVNPLTHKRVLQADNVPYILAEMMMEGLYGRSGDWAYRVGLPGKSGVGGGILAVVPGVMGIAAFSPPLDEDGNSVRGQKMVASVAKQLGYNVFKG | 5.46 ± 0.86 | > 8 | 10.1 | 4.65 ± 0.16 | 5.64 ± 1.6 | 4.81 ± 0.26 | 4.57 ± 0.085 | – | 4.75 ± 0.39 | 7.14 ± 2.3 | 6.4 ± 0.21 | 12.4 ± 0.65
MLDNVLRIATRQSPLALWQAHYVKDKLMASHPGLVVELVPMVTRGDVILDTPLAKVGGKGLFVKELEVALLENRADIAVHSMKDVPVEFPQGLGLVTICEREDPRDAFVSNNYDSLDALPAGSIVGTSSLRRQCQLAERRPDLIIRSLRGNVGTRLSKLDNGEYDAIILAVAGLKRLGLESRIRAALPPEISLPAVGQGAVGIECRLDDSRTRELLAALNHHETALRVTAERAMNTRLEGGCQVPIGSYAELIDGEIWLRALVGAPDGSQIIRGERRGAPQDAEQMGISLAEELLNNGAREILAEVYNGDAPA | 3.85 ± 1.1 | 5.48 ± 0.92 | – | 4.0338 ± 0.0026 | 4.24 ± 0.11 | 4.87 ± 0.84 | 4.04 ± 0.045 | 2.81 ± 0.084 | 4.12 ± 0.23 | 7.009 ± 0.051 | 5.475 ± 0.013 | 11.4 ± 0.85
MLDPNLLRNEPDAVAEKLARRGFKLDVDKLGALEERRKVLQVKTENLQAERNSRSKSIGQAKARGEDIEPLRLEVNKLGEELDAAKAELDALQAEIRDIALTIPNLPADEVPVGKDENDNVEVSRWGTPREFDFEVRDHVTLGEMHSGLDFAAAVKLTGSRFVVMKGQIARMHRALSQFMLDLHTEQHGYSENYVPYLVNQDTLYGTGQLPKFAGDLFHTRPLEEEADTSNYALIPTAEVPLTNLVRGEIIDEDDLPIKMTAHTPCFRSEAGSYGRDTRGLIRMHQFDKVEMVQIVRPEDSMAALEEMTGHAEKVLQLLGLPYRKIILCTGDMGFGACKTYDLEVWIPAQNTYREISSCSNVWDFQARRMQARCRSKSDKKTRLVHTLNGSGLAVGRTLVAVMENYQQADGRIEVPEVLRPYMNGLEYIG [P0A8L1] | 5.7 ± 0.32 | 6.43 ± 0.77 | 11.5 ± 0.57 | 5.59 ± 0.06 | 5.43 ± 0.54 | 5.511 ± 0.051 | 5.16 ± 0.24 | 3.66 ± 0.21 | 5.63 ± 0.29 | 9.239 ± 0.058 | 6.28 ± 0.27 | 13.3 ± 1.1
MLDQVCQLARNAGDAIMQVYDGTKPMDVVSKADNSPVTAADIAAHTVIMDGLRTLTPDVPVLSEEDPPGWEVRQHWQRYWLVDPLDGTKEFIKRNGEFTVNIALIDHGKPILGVVYAPVMNVMYSAAEGKAWKEECGVRKQIQVRDARPPLVVISRSHADAELKEYLQQLGEHQTTSIGSSLKFCLVAEGQAQLYPRFGPTNIWDTAAGHAVAAAAGAHVHDWQGKPLDYTPRESFLNPGFRVSIY | 4.77 ± 0.078 | 5.69 ± 0.6 | 10.58 ± 0.1 | 4.6 ± 0.36 | 4.77 ± 0.62 | 5.51 ± 1.2 | 4.29 ± 0.011 | 2.97 ± 0.26 | 4.76 ± 0.5 | 7.931 ± 0.051 | 6.3 ± 0.95 | 10.7 ± 0.4
MLDTNMKTQLKAYLEKLTKPVELIATLDDSAKSAEIKELLAEIAELSDKVTFKEDNSLPVRKPSFLITNPGSNQGPRFAGSPLGHEFTSLVLALLWTGGHPSKEAQSLLEQIRHIDGDFEFETYYSLSCHNCPDVVQALNLMSVLNPRIKHTAIDGGTFQNEITDRNVMGVPAVFVNGKEFGQGRMTLTEIVAKIDTGAEKRAAEELNKRDAYDVLIVGSGPAGAAAAIYSARKGIRTGLMGERFGGQILDTVDIENYISVPKTEGQKLAGALKVHVDEYDVDVIDSQSASKLIPAAVEGGLHQIETASGAVLKARSIIVATGAKWRNMNVPGEDQYRTKGVTYCPHCDGPLFKGKRVAVIGGGNSGVEAAIDLAGIVEHVTLLEFAPEMKADQVLQDKLRSLKNVDIILNAQTTEVKGDGSKVVGLEYRDRVSGDIHNIELAGIFVQIGLLPNTNWLEGAVERNRMGEIIIDAKCETNVKGVFAAGDCTTVPYKQIIIATGEGAKASLSAFDYLIRTKTA | 3.63 ± 0.29 | 4.6889 ± 0.00064 | 7.3 ± 0.34 | 2.67 ± 0.26 | 2.59 ± 0.18 | 2.81 ± 0.1 | 2.68 ± 0.052 | 2.949 ± 0.0042 | 2.56 ± 0.047 | 3.37 ± 0.05 | 5.26 ± 0.2 | 9.723 ± 0.068
MLEDLKRQVLEANLALPKHNLVTLTWGNVSAVDRERGVFVIKPSGVDYSVMTADDMVVVSIETGEVVEGTKKPSSDTPTHRLLYQAFPSIGGIVHTHSRHATIWAQAGQSIPATGTTHADYFYGTIPCTRKMTDAEINGEYEWETGNVIVETFEKQGIDAAQMPGVLVHSHGPFAWGKNAEDAVHNAIVLEEVAYMGIFCRQLAPQLPDMQQTLLDKHYLRKHGAKAYYGQ | – | 2.27 | 9.82 | – | – | – | – | – | – | – | – | –
